Experimental data taken from the supplement of paper PMC10567573.

B1: SOAT2 (parent)
chain: SLGKQKVFIIRKSLLDELMEVQHF

Variants of: B1
Test: protein stability index of a GFP-peptide fusion (GPS, HEK-293T) (PSI 1-6); higher = more stable
Details: c terminus: a fixed tail appended
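Also: lentivirally expressed fusions sorted by FACS into six bins by GFP to DsRed ratio, PSI derived from sequencing read proportions per bin multiplied by bin number.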

Row | Variant | protein stability index
1 | SLGKQKVFIIRKSLLDELMEVQIF | 2.72
2 | SLGKQKVFIIRKSLLDELMEVQSF | 1.79
3 | SLGKQKVFIIRKSLLDELMEVQPF | 2.65
4 | SLGKQKVFIIRKSLLDELMEVQGF | 1.86
5 | SLGKQKVFIIRKSLLDELMEVQQF | 2.31
6 | SLGKQKVFIIRKSLLDELMEVQMF | 1.69
7 | SLGKQKVFIIRKSLLDELMEVQVF | 3.33
8 | SLGKQKVFIIRKSLLDELMEVQCF | 2.69
9 | SLGKQKVFIIRKSLLDELMEVQRF | 1.66
10 | SLGKQKVFIIRKSLLDELMEVQWF | 3.71
11 | SLGKQKVFIIRKSLLDELMEVQAF | 2.24
12 | SLGKQKVFIIRKSLLDELMEVQYF | 2.64
13 | SLGKQKVFIIRKSLLDELMEVQFF | 1.87
14 | SLGKQKVFIIRKSLLDELMEVQEF | 1.9
15 | SLGKQKVFIIRKSLLDELMEVQTF | 2.07
16 | SLGKQKVFIIRKSLLDELMEVQDF | 1.67
17 | SLGKQKVFIIRKSLLDELMEVQKF | 1.41
18 | SLGKQKVFIIRKSLLDELMEVQNF | 2.52
19 | SLGKQKVFIIRKSLLDELMEVHHF | 1.91
20 | SLGKQKVFIIRKSLLDELMEVMHF | 2.09
21 | SLGKQKVFIIRKSLLDELMEVSHF | 1.68
22 | SLGKQKVFIIRKSLLDELMEVCHF | 2.01

Row | Variant | protein stability index
23 | SLGKQKVFIIRKSLLDELMEVPHF | 1.79
24 | SLGKQKVFIIRKSLLDELMEVAHF | 2.4
25 | SLGKQKVFIIRKSLLDELMEVDHF | 1.91
26 | SLGKQKVFIIRKSLLDELMEVGHF | 3.24
27 | SLGKQKVFIIRKSLLDELMEVTHF | 3.05
28 | SLGKQKVFIIRKSLLDELMEVNHF | 2.22
29 | SLGKQKVFIIRKSLLDELMEVWHF | 2.77
30 | SLGKQKVFIIRKSLLDELMEVEHF | 2.74
31 | SLGKQKVFIIRKSLLDELMEVRHF | 3.46
32 | SLGKQKVFIIRKSLLDELMEVYHF | 2.55
33 | SLGKQKVFIIRKSLLDELMEVVHF | 1.49
34 | SLGKQKVFIIRKSLLDELMEVFHF | 2.2
35 | SLGKQKVFIIRKSLLDELMEVKHF | 2.35
36 | SLGKQKVFIIRKSLLDELMEVLHF | 2.24
37 | SLGKQKVFIIRKSLLDELKEVQHF | 2.89
38 | SLGKQKVFIIRKSLLDELIEVQHF | 2.25
39 | SLGKQKVFIIRKSLLDELFEVQHF | 3.18
40 | SLGKQKVFIIRKSLLDELLEVQHF | 2.67
41 | SLGKQKVFIIRKSLLDELWEVQHF | 2.41
42 | SLGKQKVFIIRKSLLDELNEVQHF | 3.23
43 | SLGKQKVFIIRKSLLDELYEVQHF | 1.36
44 | SLGKQKVFIIRKSLLDELQEVQHF | 2.25

Row | Variant | protein stability index
45 | SLGKQKVFIIRKSLLDELVEVQHF | 1.66
46 | SLGKQKVFIIRKSLLDELPEVQHF | 2.08
47 | SLGKQKVFIIRKSLLDELTEVQHF | 1.74
48 | SLGKQKVFIIRKSLLDELSEVQHF | 2.25
49 | SLGKQKVFIIRKSLLDELEEVQHF | 1.69
50 | SLGKQKVFIIRKSLLDELREVQHF | 1.94
51 | SLGKQKVFIIRKSLLDELHEVQHF | 2.93
52 | SLGKQKVFIIRKSLLDELDEVQHF | 2.24
53 | SLGKQKVFIIRKSLLDELGEVQHF | 2.23
54 | SLGKQKVFIIRKSLLDELMHVQHF | 1.45
55 | SLGKQKVFIIRKSLLDELMFVQHF | 3.11
56 | SLGKQKVFIIRKSLLDELMKVQHF | 2.57
57 | SLGKQKVFIIRKSLLDELMIVQHF | 2.03
58 | SLGKQKVFIIRKSLLDELMGVQHF | 2.85
59 | SLGKQKVFIIRKSLLDELMSVQHF | 2.48
60 | SLGKQKVFIIRKSLLDELMLVQHF | 3.13
61 | SLGKQKVFIIRKSLLDELMQVQHF | 1.62
62 | SLGKQKVFIIRKSLLDELMCVQHF | 2.19
63 | SLGKQKVFIIRKSLLDELMVVQHF | 1.83
64 | SLGKQKVFIIRKSLLDELMTVQHF | 2.8
65 | SLGKQKVFIIRKSLLDELMYVQHF | 2.9
66 | SLGKQKVFIIRKSLLDELMNVQHF | 3.04

Row | Variant | protein stability index
67 | SLGKQKVFIIRKSLLDELMPVQHF | 1.45
68 | SLGKQKVFIIRKSLLDELMRVQHF | 2.84
69 | SLGKQKVFIIRKSLLDELMDVQHF | 1.63
70 | SLGKQKVFIIRKSLLDELMMVQHF | 2.66
71 | SLGKQKVFIIRKSLLDELMECQHF | 3.18
72 | SLGKQKVFIIRKSLLDELMELQHF | 2
73 | SLGKQKVFIIRKSLLDELMESQHF | 2.63
74 | SLGKQKVFIIRKSLLDELMEEQHF | 1.99
75 | SLGKQKVFIIRKSLLDELMEYQHF | 2.38
76 | SLGKQKVFIIRKSLLDELMERQHF | 2.92
77 | SLGKQKVFIIRKSLLDELMEPQHF | 2.16
78 | SLGKQKVFIIRKSLLDELMEMQHF | 1.89
79 | SLGKQKVFIIRKSLLDELMEFQHF | 2.85
80 | SLGKQKVFIIRKSLLDELMEWQHF | 2.46
81 | SLGKQKVFIIRKSLLDELMEAQHF | 3.1
82 | SLGKQKVFIIRKSLLDELMEDQHF | 1.74
83 | SLGKQKVFIIRKSLLDELMEKQHF | 2.08
84 | SLGKQKVFIIRKSLLDELMEQQHF | 4
85 | SLGKQKVFIIRKSLLDELMEGQHF | 1.77
86 | SLGKQKVFIIRKSLLDELMEIQHF | 3.07
87 | SLGKQKVFIIRKSLLDELMETQHF | 1.93
88 | SLGKQKVFIIRKSLLDELMENQHF | 2

Row | Variant | protein stability index
89 | SLGKQKVFIIRKSLLDELMEHQHF | 2.23
90 | SLGKQKVFIIRKSLLDELMEVQHP | 2.27
91 | SLGKQKVFIIRKSLLDELMEVQHT | 1.8
92 | SLGKQKVFIIRKSLLDELMEVQHI | 2.9
93 | SLGKQKVFIIRKSLLDELMEVQHD | 2.65
94 | SLGKQKVFIIRKSLLDELMEVQHQ | 2.75
95 | SLGKQKVFIIRKSLLDELMEVQHE | 1.71
96 | SLGKQKVFIIRKSLLDELMEVQHS | 2.25
97 | SLGKQKVFIIRKSLLDELMEVQHL | 2.18
98 | SLGKQKVFIIRKSLLDELMEVQHN | 1.9
99 | SLGKQKVFIIRKSLLDELMEVQHR | 2.03
100 | SLGKQKVFIIRKSLLDELMEVQHH | 1.36
101 | SLGKQKVFIIRKSLLDELMEVQHC | 2.09
102 | SLGKQKVFIIRKSLLDELMEVQHW | 2.78
103 | SLGKQKVFIIRKSLLDELMEVQHA | 1.8
104 | SLGKQKVFIIRKSLLDELMEVQHY | 2.74
105 | SLGKQKVFIIRKSLLDELMEVQHK | 2.4
106 | SLGKQKVFIIRKSLLDELMEVQHG | 1.68
107 | SLGKQKVFIIRKSLLDELMEVQHM | 2.2
